Data as given in patent publication US20190359711A1 (Janssen / Centocor, published 2019).

T1: B-Defensin-3 (Homo sapiens (Human), UniProt P81534 23-67, not fully specified)
T1 construct: also called β-defensin
T1 peptide: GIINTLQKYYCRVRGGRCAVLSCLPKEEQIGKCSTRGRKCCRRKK

T2: rh-CD19 (UniProt P15391 20-291, limits assumed)
T2 construct: 'rh-' is not explained
T2 sequence (looked up): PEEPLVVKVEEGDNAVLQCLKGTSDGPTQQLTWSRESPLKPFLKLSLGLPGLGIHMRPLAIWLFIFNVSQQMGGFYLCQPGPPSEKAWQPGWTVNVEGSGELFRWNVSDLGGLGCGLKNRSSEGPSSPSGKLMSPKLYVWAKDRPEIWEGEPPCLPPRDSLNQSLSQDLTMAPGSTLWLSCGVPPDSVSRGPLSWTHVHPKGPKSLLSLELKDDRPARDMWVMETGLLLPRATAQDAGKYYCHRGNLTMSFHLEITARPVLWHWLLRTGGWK


Experiments:
B-Defensin-3 [1] = target: T1, B-Defensin-3; assay: SPR (Biacore 8K), antibody passed over immobilized protein
Description: (§1) Non-specific binding of the lead molecule to unrelated surfaces is determined by biosensor technology (Biacore 8K). Antibody is passed over SPR surfaces coated with unrelated proteins. […] Lead molecule is tested at the final concentration of 1 μM. Irrelevant surfaces include negatively charged protein (Soy Trypsin Inhibitor), positively charged protein (Lysozyme and β-defensin), hydrophobic (Rh-integrin a4b7), human IgG, sticky protein (Rh-CD19). Proper controls are used in this experiment. Lead is flown over two surfaces, one is a blank and the other has a molecule directly immobilized. The response unit (RU) level is determined by subtracting the blank RU from the test surface RU. The RU of TMCB150 and the parental mAbs are given below in the table. A response unit ≥100 predicts high risks for non-specific binding to charged/hydrophobic/IgG surfaces which would create challenges during manufacturing and translate to poor PK properties. None of the antibodies show non-specific binding to irrelevant surfaces predicting low to no risks for manufacturing and in-vivo behavior.

rh-Integrin a4b7 [2] = target: T3, rh-Integrin a4b7 (UniProt P13612 34-977; P26010 20-723); assay: as above
T3 construct: 'rh-' is not explained
T3 sequence (P13612 34-977, chain 1 of 2): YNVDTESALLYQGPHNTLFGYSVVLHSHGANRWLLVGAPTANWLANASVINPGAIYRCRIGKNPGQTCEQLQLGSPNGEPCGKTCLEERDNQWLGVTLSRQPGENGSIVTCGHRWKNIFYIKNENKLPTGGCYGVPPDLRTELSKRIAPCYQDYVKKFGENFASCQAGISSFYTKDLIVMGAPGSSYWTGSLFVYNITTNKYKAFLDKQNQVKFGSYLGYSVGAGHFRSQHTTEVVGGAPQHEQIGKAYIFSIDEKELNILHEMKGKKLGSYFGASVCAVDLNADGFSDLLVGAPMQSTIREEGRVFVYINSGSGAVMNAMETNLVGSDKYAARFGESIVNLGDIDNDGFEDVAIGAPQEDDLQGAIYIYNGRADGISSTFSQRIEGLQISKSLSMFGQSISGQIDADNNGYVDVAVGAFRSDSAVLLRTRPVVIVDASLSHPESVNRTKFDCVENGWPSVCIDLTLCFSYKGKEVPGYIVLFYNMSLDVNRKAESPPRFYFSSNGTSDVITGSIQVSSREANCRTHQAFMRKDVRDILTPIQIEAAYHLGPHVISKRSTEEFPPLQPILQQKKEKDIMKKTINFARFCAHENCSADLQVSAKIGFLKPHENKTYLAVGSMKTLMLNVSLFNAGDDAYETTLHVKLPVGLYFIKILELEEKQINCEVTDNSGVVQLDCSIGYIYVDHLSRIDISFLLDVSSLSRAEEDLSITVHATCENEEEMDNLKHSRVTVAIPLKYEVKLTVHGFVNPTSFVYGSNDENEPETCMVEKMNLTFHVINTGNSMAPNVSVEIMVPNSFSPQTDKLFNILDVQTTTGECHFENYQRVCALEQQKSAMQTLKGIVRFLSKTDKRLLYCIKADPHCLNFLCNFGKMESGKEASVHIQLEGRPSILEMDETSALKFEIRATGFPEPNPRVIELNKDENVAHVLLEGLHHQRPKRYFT
T3 sequence (P26010 20-723, chain 2 of 2): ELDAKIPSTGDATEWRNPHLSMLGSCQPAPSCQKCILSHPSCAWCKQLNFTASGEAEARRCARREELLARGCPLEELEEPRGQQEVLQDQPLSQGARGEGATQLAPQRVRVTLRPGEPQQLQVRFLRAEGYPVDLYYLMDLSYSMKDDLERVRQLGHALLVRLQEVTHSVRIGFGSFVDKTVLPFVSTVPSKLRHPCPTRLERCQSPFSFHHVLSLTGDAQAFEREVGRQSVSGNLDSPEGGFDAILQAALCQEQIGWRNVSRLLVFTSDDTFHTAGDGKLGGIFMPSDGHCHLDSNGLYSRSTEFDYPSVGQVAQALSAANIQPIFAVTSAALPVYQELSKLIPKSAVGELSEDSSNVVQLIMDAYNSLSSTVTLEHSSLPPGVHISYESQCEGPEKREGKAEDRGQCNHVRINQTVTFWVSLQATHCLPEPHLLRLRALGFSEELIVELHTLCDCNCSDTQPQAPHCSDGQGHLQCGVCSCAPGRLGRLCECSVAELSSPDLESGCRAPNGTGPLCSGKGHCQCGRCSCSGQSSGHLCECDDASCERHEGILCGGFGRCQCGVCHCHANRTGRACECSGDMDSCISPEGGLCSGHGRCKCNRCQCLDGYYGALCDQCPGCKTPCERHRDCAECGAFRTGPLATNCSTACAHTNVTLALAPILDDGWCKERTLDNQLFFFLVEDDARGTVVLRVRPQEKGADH
Description: as §1

rh-CD19 [3] = target: T2, rh-CD19; assay: as above
Description: as §1

Soy Trypsin Inhibitor = target: T4, Soy Trypsin Inhibitor (soy); assay: SPR (Biacore 8K), 1 µM antibody over immobilized protein, blank subtracted
T4 construct: also called STI
T4 sequence (P01070 25-205): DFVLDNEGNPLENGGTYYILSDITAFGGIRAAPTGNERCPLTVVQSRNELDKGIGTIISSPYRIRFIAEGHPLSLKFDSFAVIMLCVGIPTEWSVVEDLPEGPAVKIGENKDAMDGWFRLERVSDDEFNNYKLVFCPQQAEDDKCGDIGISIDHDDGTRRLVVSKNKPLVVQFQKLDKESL
Description: as §1

B-Defensin-3 [4] = target: T1, B-Defensin-3; assay: as above
Description: as §1

Human IgG = assay: as above
Description: as §1

Lysozyme = assay: as above
Chain of Lysozyme (P00698 19-147): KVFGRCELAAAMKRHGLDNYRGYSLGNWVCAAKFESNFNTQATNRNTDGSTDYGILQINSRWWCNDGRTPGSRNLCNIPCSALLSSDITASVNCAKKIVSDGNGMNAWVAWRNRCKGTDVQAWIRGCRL
Description: as §1

rh-Integrin a4b7 [5] = target: T3, rh-Integrin a4b7; assay: as above
Description: as §1

rh-CD19 [6] = target: T2, rh-CD19; assay: as above
Description: as §1

Row | Binder | binding result (B-Defensin-3 [1]) | binding result (rh-Integrin a4b7 [2]) | binding result (rh-CD19 [3]) | response unit (RU) (Soy Trypsin Inhibitor) | response unit (RU) (B-Defensin-3 [4]) | response unit (RU) (Human IgG) | response unit (RU) (Lysozyme) | response unit (RU) (rh-Integrin a4b7 [5]) | response unit (RU) (rh-CD19 [6])
1 | CD3B376 (antibody, V domains shown, HC is IgG4 S228P, F234A, L235A, F405L, R409K; also called anti-CD3 antibody; bivalent CD3B376) VH: QVQLQQSGPRLVRPSQTLSLTCAISGDSVFNNNAAWSWIRQSPSRGLEWLGRTYYRSKWLYDYAVSVKSRITVNPDTSRNQFTLQLNSVTPEDTALYYCARGYSSSFDYWGQGTLVTVSS VL: QSALTQPASVSGSPGQSITISCTGTSSNIGTYKFVSWYQQHPDKAPKVLLYEVSKRPSGVSSRFSGSKSGNTASLTISGLQAEDQADYHCVSYAGSGTLLFGGGTKLTVLG | no binding | no binding | no binding | 19.5 RU | 3.1 RU | 0.4 RU | 0.2 RU | 0 RU | 0 RU
2 | TMEB762 (antibody, human IgG4 S228P, kappa, F234A L235A, V domains shown, IgG4PAA; re-engineered variant of TMEB675 (HC R14P, P20L, H81Q; LC A1D, A91P, Kabat); Bivalent TMEFF2 parent of TMCB150; also called anti-TMEFF2 antibody; VH TMEH459) VH: EVQLLESGGGLVQPGGSLRLSCAASGFTFSSYSMSWVRQAPGKGLEWVSVISGSGGFTDYADSVKGRFTISRDNSKNTLYLQMNSLRAEDTAVYYCARMPLNSPHDYWGQGTLVTVSS VL: DIQMTQSPSSLSASVGDRVTITCRASQGIRNDLGWYQQKPGKAPKLLIYAASSLQSGVPSRFSGSGSGTDFTLTISSLQPEDFATYYCLQDYNYPLTFGGGTKVEIKR | no binding | no binding | no binding | 0 RU | 4.1 RU | 8.4 RU | 4.6 RU | 0 RU | 3.3 RU
3 | TMCB150 (bispecific antibody, human IgG4 S228P, kappa, lambda, F234A L235A, made by Fab arm exchange of the parental IgG4PAA mAbs, so the chains are those of TMEB762 (HC 91, LC 92) and CD3B376 (HC 78, LC 79); also called TMEB762xCD3B376; bispecific anti-TMEFF2/CD3 antibody) heavy 1: not shown light 1: not shown heavy 2: QVQLQQSGPRLVRPSQTLSLTCAISGDSVFNNNAAWSWIRQSPSRGLEWLGRTYYRSKWLYDYAVSVKSRITVNPDTSRNQFTLQLNSVTPEDTALYYCARGYSSSFDYWGQGTLVTVSSASTKGPSVFPLAPCSRSTSESTAALGCLVKDYFPEPVTVSWNSGALTSGVHTFPAVLQSSGLYSLSSVVTVPSSSLGTKTYTCNVDHKPSNTKVDKRVESKYGPPCPPCPAPEAAGGPSVFLFPPKPKDTLMISRTPEVTCVVVDVSQEDPEVQFNWYVDGVEVHNAKTKPREEQFNSTYRVVSVLTVLHQDWLNGKEYKCKVSNKGLPSSIEKTISKAKGQPREPQVYTLPPSQEEMTKNQVSLTCLVKGFYPSDIAVEWESNGQPENNYKTTPPVLDSDGSFLLYSKLTVDKSRWQEGNVFSCSVMHEALHNHYTQKSLSLSLGK light 2: QSALTQPASVSGSPGQSITISCTGTSSNIGTYKFVSWYQQHPDKAPKVLLYEVSKRPSGVSSRFSGSKSGNTASLTISGLQAEDQADYHCVSYAGSGTLLFGGGTKLTVLGQPKAAPSVTLFPPSSEELQANKATLVCLISDFYPGAVTVAWKADSSPVKAGVETTTPSKQSNNKYAASSYLSLTPEQWKSHRSYSCQVTHEGSTVEKTVAPTECS | no binding | no binding | no binding | 1.6 RU | 6.4 RU | 7.5 RU | 4.2 RU | 0 RU | 3.4 RU
